Each block holds one binder with its values, some of them ahead of it.
What was measured:
CD47 [1] = molecular target: T1, CD47 (UniProt Q08722 19-323, limits assumed); assay: flow cytometry on CD38^-CD47^+ Jurkat cells, FITC anti-human IgG-Fc
T1 construct: whole, on cells; also called CD47 on CD38^-CD47^+ Jurkat cells; CD47 on CD38^+CD47^+ NCI-H929 cells
Procedure: Cells were washed with cold 1% BSA-PBS twice, and then incubated with FITC-conjugated secondary antibody against human IgG-Fc (Cat #F9512, Sigma) for 45 min. Cells were washed twice and re-suspended in 200 μl PBS. Then, the cells were subject to FACS analysis using a flow cytometer (Merck Millipore, Guava® easyCyte 5HT).

CD47 [2] = molecular target: T1, CD47; assay: FACS competition against SIRPα-mFc (3 µg/ml) on CD47^+CD38^+ NCI-H929 cells, PE anti-mouse IgG-Fc
Procedure: The resultant mixtures were added to the wells of a 96-well plate each containing 50 μl 1×10⁶/ml CD47⁺CD38⁺ NCI-H929 cells, and the plate was incubated at 4° C. for 45 min. […] Cells were washed twice, re-suspended in 200 μl PBS, and subject to FACS analysis.

- EC50 (CD47 [1]): 21.9 nM
B1: IMM5602 (bispecific antibody, human IgG1, kappa)
heavy: QVQLVQSGAEVAKPGTSVKLSCKASGYTFTDYWMQWVKQRPGQGLEWIGTIYPGDGDTGYAQKFQGKATLTADKSSKTVYMHLSSLASEDSAVYYCARGDYYGSNSLDYWGQGTSVTVSSASTKGPSVFPLAPSSKSTSGGTAALGCLVKDYFPEPVTVSWNSGALTSGVHTFPAVLQSSGLYSLSSVVTVPSSSLGTQTYICNVNHKPSNTKVDKRVEPKSCDKTHTCPPCPAPELLGGPSVFLFPPKPKDTLMISRTPEVTCVVVDVSHEDPEVKFNWYVDGVEVHNAKTKPREEQYNATYRVVSVLTVLHQDWLNGKEYKCKVSNKALPAPIAATISKAKGQPREPQVYTLPPSREEMTKNQVSLTCLVKGFYPSDIAVEWESNGQPENNYKTTPPVLDSDGSFFLYSKLTVDKSRWQQGNVFSCSVMHEALHNHYTQKSLSLSPGK
light: not shown
notes: also called recombinant fusion protein; anti-CD38 heavy chain + SIRPαD1-linker-anti-CD38 light chain

- IC50 (CD47 [2]): 30.7 nM
- EC50 (CD47 [1]): 14.1 nM
B2: IMM5601 (bispecific antibody, human IgG1, kappa)
heavy: not shown
light: DIVMTQSHLSMSTSLGDPVSITCKASQDVSTVVAWYQQKPGQSPRRLIYSASYRYIGVPDRFTGSGAGTDFTFTISSVQAEDLAVYYCQQHYSPPYTFGGGTKLEIKRTVAAPSVFIFPPSDEQLKSGTASVVCLLNNFYPREAKVQWKVDNALQSGNSQESVTEQDSKDSTYSLSSTLTLSKADYEKHKVYACEVTHQGLSSPVTKSFNRGEC
notes: also called recombinant fusion protein; SIRPαD1-linker-anti-CD38 heavy chain + anti-CD38 light chain

From patent US20230110702A1 (IMMUNEONCO BIOPHARMACEUTICALS SHANGHAI, published 2023)
